Data: PMC5499575 (Nucleic Acids Research, 2017)

Biological target: T1, HDA15-GST (Arabidopsis, UniProt Q8GXJ1 1-552)
T1 sequence (looked up): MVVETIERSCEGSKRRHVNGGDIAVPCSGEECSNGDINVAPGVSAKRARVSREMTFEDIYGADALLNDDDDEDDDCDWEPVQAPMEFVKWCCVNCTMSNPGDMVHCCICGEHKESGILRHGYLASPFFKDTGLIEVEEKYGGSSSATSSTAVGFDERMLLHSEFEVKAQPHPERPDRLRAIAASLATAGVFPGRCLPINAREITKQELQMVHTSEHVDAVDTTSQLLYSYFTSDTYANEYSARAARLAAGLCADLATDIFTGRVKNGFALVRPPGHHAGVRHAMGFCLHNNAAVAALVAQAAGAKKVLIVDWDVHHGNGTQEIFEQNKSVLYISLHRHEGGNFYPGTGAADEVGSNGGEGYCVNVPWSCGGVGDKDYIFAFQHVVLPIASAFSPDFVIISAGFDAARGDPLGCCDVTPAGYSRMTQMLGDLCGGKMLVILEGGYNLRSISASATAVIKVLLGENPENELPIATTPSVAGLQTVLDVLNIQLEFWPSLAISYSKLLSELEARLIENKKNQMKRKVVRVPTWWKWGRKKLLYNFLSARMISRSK
Experiment: pull-down

B1: PIF1-His (natural protein, Arabidopsis, UniProt Q8GZM7 1-478, looked up)
chain: MHHFVPDFDTDDDYVNNHNSSLNHLPRKSITTMGEDDDLMELLWQNGQVVVQNQRLHTKKPSSSPPKLLPSMDPQQQPSSDQNLFIQEDEMTSWLHYPLRDDDFCSDLLFSAAPTATATATVSQVTAARPPVSSTNESRPPVRNFMNFSRLRGDFNNGRGGESGPLLSKAVVRESTQVSPSATPSAAASESGLTRRTDGTDSSAVAGGGAYNRKGKAVAMTAPAIEITGTSSSVVSKSEIEPEKTNVDDRKRKEREATTTDETESRSEETKQARVSTTSTKRSRAAEVHNLSERKRRDRINERMKALQELIPRCNKSDKASMLDEAIEYMKSLQLQIQMMSMGCGMMPMMYPGMQQYMPHMAMGMGMNQPIPPPSFMPFPNMLAAQRPLPTQTHMAGSGPQYPVHASDPSRVFVPNQQYDPTSGQPQYPAGYTDPYQQFRGLHPTQPPQFQNQATSYPSSSRVSSSKESEDHGNHTTG
B1: binds.
